{"source": "patent US20250376507A1", "about": "“NOVEL TUMOR ANTIGEN-TARGETING ANTICANCER AGENT” (INDUSTRY FOUNDATION OF CHONNAM NATIONAL UNIVERSITY, priority 2022, published 2025)", "key": {"CT-26 cells [1]": {"test_system": "CT-26 cells", "experiment": "Flow cytometry for ecto-CRT exposure in L-ASNase-treated CT-26 cells", "type": "cell-based, mouse", "settings": "200 IU/mL, 24 h", "description": "FIG. 6a is a graph showing the analysis of the cytotoxicity enhanced by CRT3LP and CRT4LP in tumor cells treated with ICD-induced anticancer agents and the viability of tumor cells treated with L-ASNases. CT-26 cells (4×10^4) cultured overnight were treated with L-ASNases (200 IU/mL) in 96-well plates and viability was measured at the indicated times. The viability at each time was calculated relative to time 0. Cells were stained with anti-CRT antibodies.\nFIG. 6b is a graph representing the results of flow cytometry histogram analysis for ecto-CRT. Filled black lines stained with isotype antibodies; red lines stained with anti-CRT antibodies."}, "[2]": {"experiment": "Thermal stability analysis at 55° C.", "type": "physicochemical", "settings": "after 180 min", "description": "Briefly, 200 μL of PASylated recombinant protein or L-ASNase (1 mg/mL) was incubated in a thermal cycler (Finepcr, Korea) at 55° C. for 30-180 min. The residual enzymatic activity of the proteins was measured using an asparaginase activity analysis kit as described above. The residual activity (%) at each incubation time was calculated relative to the sample activity at time 0."}, "[3]": {"experiment": "In vivo pharmacokinetic analysis", "design": "species or system BALB/c mice", "settings": "10 IU intravenous, mouse serum", "description": "Six-week-old female BALB/c mice (Orient Company, Korea) were randomly assigned to different treatment groups (n=3) and intravenously injected with 10 IU of PASylated recombinant protein. Then, blood samples were taken from the eyes at the specified time (0-52 h) and left at 4° C. for 40 min. After centrifugation at 12,000 rpm for 20 min, the serum fraction was obtained and stored at −80° C. before further analysis. PASylated recombinant protein in serum was assessed using the ELISA method described above. The amount of serum recombinant protein was converted to enzyme activity."}, "[4]": {"experiment": "L-ASNase activity analysis (asparaginase activity kit)", "type": "biochemical", "settings": "25° C.", "description": "The L-ASNase enzyme activity of the recombinant proteins was measured with an asparaginase activity analysis kit using an OxiRed probe (Abcam, USA). 1 International unit (IU) was defined as the amount of enzyme generating 1.0 μmol of Asp per minute at 25° C."}, "CT-26 cells [5]": {"test_system": "CT-26 cells", "experiment": "Cell viability (CCK-8) of CT-26 cells", "type": "cell-based, mouse", "description": "CT-26 and MC-38 cells (10^4 cells per well) were seeded into three wells of a 96-well plate and incubated at 37° C. The next day, the culture medium was replaced with 100 μL of fresh medium containing the above concentrations of anticancer agents. After incubation at 37° C. for 4 h, the culture medium was removed and the cells were washed three times with PBS. […] Finally, CCK-8 reagent (10 μL/well) was added for 3 h at 37° C., and the amount of color in each sample was measured at OD450."}}, "note": "“And” between values parts separate entries of the source, which are not always exact repeats. Equal entries are not always repeated.", "data": [{"molecule": "L-ASNase: L-asparaginase, enzyme that hydrolyzes L-asparagine; purchased from Prospec, used as free control (protein, L-asparaginase, L-asparaginase, enzyme that hydrolyzes L-asparagine; purchased from Prospec, used as free control) LPNITILATGGTIAGGGDSATKSNYTAGKVGVENLVNAVPQLKDIANVKGEQVVNIGSQDMNDDVWLTLAKKINTDCDKTDGFVITHGTDTMEETAYFLDLTVKCDKPVVMVGAMRPSTSMSADGPFNLYNAVVTAADKASANRGVLVVMNDTVLDGRDVTKTNTTDVATFKSVNYGPLGYIHNGKIDYQRTPARKHTSDTPFDVSKLNELPKVGIVYNYANASDLPAKALVDAGYDGIVSAGVGNGNLYKTVFDTLATAAKNGTAVVRSSRVPTGATTQDVEVDDAKYGFVASGTLNPQKARVLLQLALTQTKDPQQIQQIFNQY", "values": [{"measurement": "CRT exposure (ecto-CRT)", "setting": "CT-26 cells [1]", "value": "no significant CRT exposure"}, {"measurement": "residual enzymatic activity, of the initial activity", "setting": "[2]", "value": 16.4, "unit": "%"}, {"measurement": "half-life", "setting": "[3]", "value": "1.8 h and 1.79 ± 0.22 h"}, {"measurement": "enzymatic activity (specific activity)", "setting": "[4]", "value": "~7.2", "unit": "IU/nmol"}, {"measurement": "reduction of cell viability in cells pretreated with anticancer agents", "setting": "CT-26 cells [5]; 1 IU/mL, 24 h after pretreatment", "value": "barely reduced"}, {"measurement": "cell viability", "setting": "CT-26 cells [5]; 200 IU/mL, 24 h, no anticancer pretreatment", "value": "progressive decrease in viability"}]}]}
